In US12303551B2, “Cellular immunotherapy compositions and uses thereof” (CERO THERPEUTICS HOLDINGS, INC., priority 2018, dated 2025):

Experiments:
SCC152 target cells = assay: Phagocytosis of SCC152 by CD4+ T cell/CER, fluorescence microscopy with hybrid capture; type: cell-based; conditions: TRAF-domain CERs, 4 hours, 1:1:0.5 (CD8:CD4:target cell); versus CD4+ control + CD8+/E7 TCR
Protocol: FIG. 28 is a bar graph representing quantification of CD4+ T cell-CER mediated phagocytosis of SCC152 target cells. Results calculated as ((number of phagocytic target events)/(total number of effectors))*100 from 3×3 40× images, 4 hours after initiation of co-culture assay. CD8+ T cells transduced with HPV16 E7 TCR and CD4+ T cells transduced with selected CERs (CER5, CER17, CER19, CER21, CER23, CER26, CER27, CER103b, CER104, CER105, CER106, or CER116) were co-cultured with SCC152 squamous head and neck carcinoma target cells at a 1:1:0.5 ratio for 4 hours and imaged.
FIG. 29 is a bar graph representing quantification of CD4+ T cell-CER mediated phagocytosis of SCC152 target cells. Results calculated as (median area ratio of target events in effector cells*% phagocytosis) from 3×3 40× images, 4 hours after initiation of co-culture assay. CD8+ T cells transduced with HPV16 E7 TCR and CD4+ T cells transduced with selected CERs (CER5, CER17, CER19, CER21, CER23, CER26, CER27, CER103b, CER104, CER105, CER106, or CER116) were co-cultured with SCC152 squamous head and neck carcinoma target cells at a 1:1:0.5 ratio for 4 hours and imaged.
(§1) FIG. 55 is a bar graph representing quantification of CD4+ T cell-CER mediated phagocytosis of SCC152 target cells. Percent phagocytosis was calculated as ((number of phagocytic target events)/(total number of effector cells))*100. These numbers were calculated from 3×3 images captured by Keyence BZ-X710 fluorescence microscope at 40× resolution, 4 hours after initiation of co-culture assay. CD8+ T cells transduced with HPV16 E7 TCR and CD4+ T cells transduced with a selected CER (CER29, CER30, CER110, CER112, CER113, CER114, CER116, or CER117) were co-cultured with SCC152 target cells at a 1:1:0.5 ratio (CD8:CD4:target cell) for 4 hours and imaged.
as §1, with “56” for “55”, “Adjusted phagocytic index” for “Percent phagocytosis”, “(median area ratio” for “((number”, “of” for “of phagocytic”, “events in” for “events)/(total number of”, “cells*% phagocytosis).” for “cells))*100.”
Phagocytic activity of CD4+ T cell/CER+CD8+ T cell/HPV16 E7 TCR combinations co-cultured with SCC152 cells was visualized and quantified using KEYENCE BZ-X710 fluorescence microscope, […] and hybrid capture software.

SCC152 cells = assay: Elimination of GFP-expressing SCC152 target cells over time (quantification and time lapse imaging); type: cell-based; conditions: for elimination of SCC152 cells, time lapse imaging: 0 to 36 hrs, compared to the control; for elimination of SCC152 cells (GFP quantification): by 36 hrs, 1:1:1 ratio (CD8:CD4:target cell), compared to control
Summary of the method: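 GFP-labelled SCC152 (HPV16+) target cells were co-cultured at 1:1:1 with CD8+ T cells carrying an HPV16 E7 TCR and with CD4+ T cells transduced with a chimeric CER or a control. Remaining target cells were counted by fluorescence imaging and automated software at 0, 12, 24, 36 h or 0, 24, 48 h.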

Molecule	engulfment of SCC152 target cells (percent phagocytosis, adjusted phagocytic index) (SCC152 target cells)	elimination of SCC152 cells, time lapse imaging (SCC152 cells)	elimination of SCC152 cells (GFP quantification) (SCC152 cells)
CER112: Chimeric engulfment receptor: Tim4 binding, Tim4 transmembrane, TRAF6 and NFAM1 signaling; SEQ ID NO: 148 (protein, CER112, amino acids 1-22 are signal peptide) MSKGLLLLWLVTELWWLYLTPAASEDTIIGFLGQPVTLPCHYLSWSQSRNSMCWGKGSCPNSKCNAELLRTDGTRIISRKSTKYTLLGKVQFGEVSLTISNTNRGDSGVYCCRIEVPGWFNDVKKNVRLELRRATTTKKPTTTTRPTTTPYVTTTTPELLPTTVMTTSVLPTTTPPQTLATTAFSTAVTTCPSTTPGSFSQETTKGSAFTTESETLPASNHSQRSMMTISTDIAVLRPTGSNPGILPSTSQLTTQKTTLTTSESLQKTTKSHQINSRQTILIIACCVGFVLMVLLFLAFLMSLLNCENSCGSSQSESDCCVAMASSCSAVTKDDSVGGTASTGNLSSSFMEEIQGYDVEFDPPLESKYECPICLMALREAVQTPCGHRFCKACIIKSIRDAGHKCPVDNEILLENQLFPDNFAKREILSLMVKCPNEGCLHKMELRHLEDHQAHCEFALMDCPQCQRPFQKFHINIHILKDCPRRQVSCDNCAASMAFEDKEIHDQNCPLANVICEYCNTILIREQMPNHYDLDCPTAPIPCTFSTFGCHEKMQRNHLARHLQENTQSHMRMLALWNKKRMRGPGKDPTRKCPDPRSASSPKQHPSESVYTALQRRETEVYACIENEDGSSPTAKQSPLSQERPHRFEDDGELNLVYENL	enhanced engulfment	enhanced elimination of SCC152 cells	nearly complete elimination
CER114: Chimeric engulfment receptor: Tim4 binding, Tim4 transmembrane, TRAF6 and MERTK signaling; SEQ ID NO: 150 (protein, CER114, amino acids 1-22 are signal peptide) MSKGLLLLWLVTELWWLYLTPAASEDTIIGFLGQPVTLPCHYLSWSQSRNSMCWGKGSCPNSKCNAELLRTDGTRIISRKSTKYTLLGKVQFGEVSLTISNTNRGDSGVYCCRIEVPGWFNDVKKNVRLELRRATTTKKPTTTTRPTTTPYVTTTTPELLPTTVMTTSVLPTTTPPQTLATTAFSTAVTTCPSTTPGSFSQETTKGSAFTTESETLPASNHSQRSMMTISTDIAVLRPTGSNPGILPSTSQLTTQKTTLTTSESLQKTTKSHQINSRQTILIIACCVGFVLMVLLFLAFLMSLLNCENSCGSSQSESDCCVAMASSCSAVTKDDSVGGTASTGNLSSSFMEEIQGYDVEFDPPLESKYECPICLMALREAVQTPCGHRFCKACIIKSIRDAGHKCPVDNEILLENQLFPDNFAKREILSLMVKCPNEGCLHKMELRHLEDHQAHCEFALMDCPQCQRPFQKFHINIHILKDCPRRQVSCDNCAASMAFEDKEIHDQNCPLANVICEYCNTILIREQMPNHYDLDCPTAPIPCTFSTFGCHEKMQRNHLARHLQENTQSHMRMLAALRRRVQETKFGGAFSEEDSQLVVNYRAKKSFCRRAIELTLQSLGVSEELQNKLEDVVIDRNLLVLGKVLGEGEFGSVMEGNLKQEDGTSQKVAVKTMKLDNFSQREIEEFLSEAACMKDFNHPNVIRLLGVCIELSSQGIPKPMVILPFMKYGDLHTFLLYSRLNTGPKYIHLQTLLKFMMDIAQGMEYLSNRNFLHRDLAARNCMLRDDMTVCVADFGLSKKIYSGDYYRQGRIAKMPVKWIAIESLADRVYTSKSDVWAFGVTMWEITTRGMTPYPGVQNHEMYDYLLHGHRLKQPEDCLDELYDIMYSCWSADPLDRPTFSVLRLQLEKLSESLPDAQDKESIIYINTQLLESCEGIANGPSLTGLDMNIDPDSIIASCTPGAAVSVVTAEVHENNLREERYILNGGNEEWEDVSSTPFAAVTPEKDGVLPEDRLTKNGVSWSHHSTLPLGSPSPDELLFVDDSLEDSEVLM	enhanced engulfment	enhanced elimination of SCC152 cells	nearly complete elimination
CER113: Chimeric engulfment receptor: Tim4 binding, Tim4 transmembrane, TRAF6 and Baff-R signaling; SEQ ID NO: 149 (protein, CER113, amino acids 1-22 are signal peptide) MSKGLLLLWLVTELWWLYLTPAASEDTIIGFLGQPVTLPCHYLSWSQSRNSMCWGKGSCPNSKCNAELLRTDGTRIISRKSTKYTLLGKVQFGEVSLTISNTNRGDSGVYCCRIEVPGWFNDVKKNVRLELRRATTTKKPTTTTRPTTTPYVTTTTPELLPTTVMTTSVLPTTTPPQTLATTAFSTAVTTCPSTTPGSFSQETTKGSAFTTESETLPASNHSQRSMMTISTDIAVLRPTGSNPGILPSTSQLTTQKTTLTTSESLQKTTKSHQINSRQTILIIACCVGFVLMVLLFLAFLMSLLNCENSCGSSQSESDCCVAMASSCSAVTKDDSVGGTASTGNLSSSFMEEIQGYDVEFDPPLESKYECPICLMALREAVQTPCGHRFCKACIIKSIRDAGHKCPVDNEILLENQLFPDNFAKREILSLMVKCPNEGCLHKMELRHLEDHQAHCEFALMDCPQCQRPFQKFHINIHILKDCPRRQVSCDNCAASMAFEDKEIHDQNCPLANVICEYCNTILIREQMPNHYDLDCPTAPIPCTFSTFGCHEKMQRNHLARHLQENTQSHMRMLASWRRRQRRLRGASSAEAPDGDKDAPEPLDKVIILSPGISDATAPAWPPPGEDPGTTPPGHSVPVPATELGSTELVTTKTAGPEQQ	enhanced engulfment	enhanced elimination of SCC152 cells	nearly complete elimination
